The record followed here is patent publication US20160130362A1 (Genmab, published 2016).

The target in experiment [1] is His-CD38 (His-tagged extracellular domain of human CD38) (human, UniProt P28907 43-300). The experiment in a line: cell-based or functional assay.
Experiment [2] has as its target T1, human CD38 on cells (CHO-CD38 cells, Daudi-luc cells, fresh multiple myeloma tumor cells) (human, UniProt P28907 1-300). The experiment is described as follows: cell-based or functional assay.
The target of experiment [3] is T1, human CD38 on cells (CHO-CD38 cells, …). The experiment in a line: flow cytometry on Daudi-luc cells, anti-human IgG-FITC detection.
The target is the same in experiment [4]. The experiment is described as follows: cell-based or functional assay. The source holds these as a separate data set.
Experiment [5] has the same target. The experiment in a line: cell-based or functional assay. This is another data set of the same source.
Experiment [6] concerns the target T2, HA-CD38 (HA-tagged extracellular domain of human CD38, wild type) (human, UniProt P28907 43-300).
T2 construct: also called HA-tagged CD38; wt human CD38; not shown: HA-tag introduced by the forward PCR primer, after signal peptide SPHMM
The experiment is described as follows: SPR (Biacore 3000), antibody immobilized on CM-5 chip, HA-CD38 flowed over, 25° C., mean of 3 ± SD.

Experiment [7] deals with T3, cynomolgus monkey CD38 (on lymphoid tissue, lymphocytes and monocytes) (cynomolgus monkey, UniProt Q5VAN0 1-301).
T3 construct: whole, on cells; also called cynomolgus CD38
The experiment in a line: flow cytometry on cynomolgus lymphocytes, detection with FITC-labeled rabbit anti-human IgG (Example 11). In general terms: In flow cytometry, cells or beads pass a laser one at a time.

Experiment [8] addresses T1, human CD38 on cells (CHO-CD38 cells, …). The experiment in a line: flow cytometry on CHO-CD38 cells, anti-human IgG-FITC detection.
The target is the same in experiment [9]. The experiment is described as follows: cell-based or functional assay. The source holds these as a separate data set.
Experiment [10] shares this target. The experiment is described as follows: flow cytometry on fresh MM tumor cells, FITC-labelled antibody.
For experiment [11] the target is unchanged. The experiment is described as follows: flow cytometry on CHO-CD38 cells, detection with rabbit anti-human IgG-FITC (Example 4).
In experiment [12] the target is T3, cynomolgus monkey CD38 (on lymphoid …). The experiment is described as follows: immunohistochemistry on frozen cynomolgus tissue sections.

B1: -005 (antibody, human IgG1, V domains shown)
VH: EVQLLESGGGLVQPGGSLRLSCAVSGFTFNSFAMSWVRQAPGKGLEWVSAISGSGGGTYYADSVKGRFTISRDNSKNTLYLQMNSLRAEDTAVYFCAKDKILWFGEPVFDYWGQGTLVTVSS
VL: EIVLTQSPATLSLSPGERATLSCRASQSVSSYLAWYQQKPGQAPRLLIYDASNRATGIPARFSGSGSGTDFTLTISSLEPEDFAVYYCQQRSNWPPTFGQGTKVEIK
As to B1, in [1], the “cGDPribose production (% of NGD control), 0.03 µg/ml antibody” value was 102 % of NGD control; the “cGDPribose production (% of NGD control), 0.3 µg/ml antibody” value was 98 % of NGD control; the “cGDPribose production (% of NGD control), 3 µg/ml antibody” value is 66 % of NGD control; the “cGDPribose production (% of NGD control), 30 µg/ml antibody” value was 68 % of NGD control.

B2: -003 (antibody, human IgG1, V domains shown)
VH: not shown
VL: DIQMTQSPSSLSASVGDRVTITCRASQGISSWLAWYQQKPEKAPKSLIYAASSLQSGVPSRFSGSGSGTDFTLTISSLQPEDFATYYCQQYNSYPRTFGQGTKVEIK
notes: Human monoclonal IgG1 antibody; The recombinant form was cloned into pConG1f0.4 (human IgG1 constant region) and pConKappa0.4 (kappa constant region); FITC-labelled in some assays; also called antibody -003; HuMab -003
For orientation: EC50 means the concentration giving half of the maximal effect. For orientation: Kd means a measure of binding affinity in units of concentration. On to B2, for which the “EC50 of lysis of CHO-CD38 cells (table captioned ADCC; the text ties these values to CDC)” value in experiment [2] came to 4.5 µg/mL. The same molecule had an EC50 in experiment [3] of 0.26 µg/mL. For the same molecule, in experiment [4], the “Log EC50 of lysis (table captioned CDC; the text ties log EC50 values to ADCC of Daudi cells)” value came to 1.17. In addition, in experiment [5], the “EC50, CDC of CD38-CHO cells (PI-positive cells)” value stood at 3.14 µg/mL and the “EC50, CDC of Daudi-luc cells (PI-positive cells)” value was greater than 90 µg/mL. In [6], this molecule returned a Ka of 1.14e+09 M⁻¹ and a Kd of 0.885 nM. Further, in experiment [1], the “cGDPribose production (% of NGD control), 0.03 µg/ml antibody” value was 107 % of NGD control; the “cGDPribose production (% of NGD control), 0.3 µg/ml antibody” value was 107 % of NGD control; the “cGDPribose production (% of NGD control), 3 µg/ml antibody” value was 100 % of NGD control; the “cGDPribose production (% of NGD control), 30 µg/ml antibody” value is 99 % of NGD control. In [7], the binding result is given as “binds”. For the same molecule, the concentration giving a half-maximal response (EC50) in experiment [8] turned out to be 0.54 µg/mL. Besides, in experiment [9], the “EC50, ADCC of Daudi-luc cells (51Cr release)” value came out at 0.009 µg/mL and the “EC50, ADCC of fresh MM tumor cells (51Cr release)” value worked out at 0.027 µg/mL. Besides, the EC50 in experiment [10] was 0.56 µg/mL.

B3: -024 (antibody, human IgG1, V domains shown)
VH: EVQLVQSGAEVKKPGESLKISCKGSGYSFSNYWIGWVRQMPGKGLEWMGIIYPHDSDARYSPSFQGQVTFSADKSISTAYLQWSSLKASDTAMYYCARHVGWGSRYWYFDLWGRGTLVTVSS
VL: EIVLTQSPATLSLSPGERATLSCRASQSVSSYLAWYQQKPGQAPGLLIYDASNRASGIPARFSGSGSGTDFTLTISSLEPEDFAVYYCQQRSNWPLTFGGGTKVEIK
notes: Human monoclonal IgG1 antibody; The recombinant form was cloned into pConG1f0.4 (human IgG1 constant region) and pConKappa0.4 (kappa constant region); also called antibody -024
By EC50 (read off the curve) is commonly meant the concentration needed to bring the measured effect to its halfway point. In the case of B3, it took 0.05 µg/mL to reach a half-maximal effect in experiment [3] (EC50). Moreover, in experiment [11], the 50% effective concentration (EC50 (read off the curve)) was roughly 0.2 µg/mL. Besides, in [5], the “EC50, CDC of CD38-CHO cells (PI-positive cells)” value was 0.24 µg/mL and the “EC50, CDC of Daudi-luc cells (PI-positive cells)” value was greater than 90 µg/mL. Also, in experiment [1], the “cGDPribose production (% of NGD control), 0.03 µg/ml antibody” value was 105 % of NGD control; the “cGDPribose production (% of NGD control), 0.3 µg/ml antibody” value is 104 % of NGD control; the “cGDPribose production (% of NGD control), 3 µg/ml antibody” value is 100 % of NGD control; the “cGDPribose production (% of NGD control), 30 µg/ml antibody” value is 99 % of NGD control. The same molecule came in with a concentration for a half-maximal effect (EC50) in [8] of 0.08 µg/mL. For the same molecule, the binding result in [12] was “binds”. In addition, in experiment [9], the “EC50, ADCC of Daudi-luc cells (51Cr release)” value worked out at 0.0097 µg/mL and the “EC50, ADCC of fresh MM tumor cells (51Cr release)” value was 0.056 µg/mL. Also, the concentration giving a half-maximal response (EC50) in experiment [10] was determined as 0.02 µg/mL.
